Test results from article PMC6850040 (Iubmb Life, 2019).

Experiments:
[1] = target: T1, OxDC (Bacillus subtilis, UniProt O34714, S161D/E162S/N163S/S164N); assay: turbidity at […] nm, protection from aggregation; type: binding; conditions: 50 mM sodium glyoxylate; 16 mM Tris-HCl pH 7.2, 140 mM NaCl, 25 C; substrate analogue, active site (indirect evidence)
T1 construct: synthetic cDNA (GeneScript) in pET24a(+), thrombin site and C-terminal 6xHis; expressed in E. coli; two-step purification, untagged enzyme used; homohexamer 264 kDa, Mn-dependent

[2] = target: OxDC (Bacillus subtilis, UniProt O34714); assay: oxalate decarboxylase activity, Michaelis-Menten fit; type: biochemical; conditions: pH 4.2; 140 mM NaCl; no o-phenylenediamine; potassium oxalate 0.1-250 mM
[3] = target: the molecule itself; assay: dynamic light scattering; 0.5 mg/mL enzyme, 25°C, 52 mM sodium acetate pH 4.2, 140 mM NaCl; self-association (hexamer)
[4] = substrate: O=C(O)C(=O)O; assay: purified protein; conditions: pH 4.2, 140 mM NaCl, potassium oxalate 10-200 mM

O=CC(=O)O [sodium glyoxylate]
turbidity at 600 nm, protection from aggregation [1]: We found that NaGlyox prevents aggregation

O=C(O)C(=O)O [oxalate]
Km [2]: 8 ± 0.8 mM

B1: OxDC‐DSSN (OxDC bearing the Ser161Asp, Glu162Ser, Asn163Ser, Ser164Asn mutations) (enzyme, Bacillus subtilis)
chain: MKKQNDIPQPIRGDKGATVKIPRNIERDRQNPDMLVPPETDHGTVSNMKFSFSDTHNRLEKGGYAREVTVRELPISENLASVNMRLKPGAIRELHWHKEAEWAYMIYGSARVTIVDEKGRSFIDDVGEGDLWYFPSGLPHSIQALEEGAEFLLVFDDGSFDSSNTFQLTDWLAHTPKEVIAANFGVTKEEISNLPGKEKYIFENQLPGSLKDDIVEGPNGEVPYPFTYRLLEQEPIESEGGKVYIADSTNFKVSKTIASALVTVEPGAMRELHWHPNTHEWQYYISGKARMTVFASDGHARTFNYQAGDVGYVPFAMGHYVENIGDEPLVFLEIFKDDHYADVSLNQWLAMLPETFVQAHLDLGKDFTDVLSKEKHPVVKKKCSK
notes: Oxalate decarboxylase (OxDC) of Bacillus subtilis with four substitutions in the lid; made by site-directed mutagenesis of pET24a-OxDC (thrombin cleavage site and 6xHis tag at the C-terminus); The PDB entries are of the wild-type parent; source: two-step purification giving untagged protein; not shown: His6, C-terminal, cleaved
stoichiometry N [3]: 6
Km [4]: 0.30 ± 0.07 mM
Vmax [4]: 2 µmol/min/mg
kcat [4]: 1.4 s⁻¹

B2: Oxalate decarboxylase (OxDC) from Bacillus subtilis, wild type (enzyme)
chain: MKKQNDIPQPIRGDKGATVKIPRNIERDRQNPDMLVPPETDHGTVSNMKFSFSDTHNRLEKGGYAREVTVRELPISENLASVNMRLKPGAIRELHWHKEAEWAYMIYGSARVTIVDEKGRSFIDDVGEGDLWYFPSGLPHSIQALEEGAEFLLVFDDGSFSENSTFQLTDWLAHTPKEVIAANFGVTKEEISNLPGKEKYIFENQLPGSLKDDIVEGPNGEVPYPFTYRLLEQEPIESEGGKVYIADSTNFKVSKTIASALVTVEPGAMRELHWHPNTHEWQYYISGKARMTVFASDGHARTFNYQAGDVGYVPFAMGHYVENIGDEPLVFLEIFKDDHYADVSLNQWLAMLPETFVQAHLDLGKDFTDVLSKEKHPVVKKKCSK
notes: Oxalate decarboxylase (OxDC) of Bacillus subtilis; cDNA with a thrombin cleavage site and a 6xHis tag at the C-terminus in pET24a(+); homohexamer of 264 kDa; Residues of the thrombin site may remain at the C-terminus after cleavage; Purification details are in the Supporting Information; also called wild‐type OxDC; source: two-step purification giving untagged protein; not shown: His6, …
stoichiometry N [3]: 6
